Positions count from the first letter of the chain named. Names may count otherwise.
T1: death domain-deleted human DR3 (hDR3ΔDD) on CHO-K1 cells (human, UniProt Q93038 25-345)
T1 construct: also called CHO/DR3; human DR3-expressing CHO cells
T1 sequence: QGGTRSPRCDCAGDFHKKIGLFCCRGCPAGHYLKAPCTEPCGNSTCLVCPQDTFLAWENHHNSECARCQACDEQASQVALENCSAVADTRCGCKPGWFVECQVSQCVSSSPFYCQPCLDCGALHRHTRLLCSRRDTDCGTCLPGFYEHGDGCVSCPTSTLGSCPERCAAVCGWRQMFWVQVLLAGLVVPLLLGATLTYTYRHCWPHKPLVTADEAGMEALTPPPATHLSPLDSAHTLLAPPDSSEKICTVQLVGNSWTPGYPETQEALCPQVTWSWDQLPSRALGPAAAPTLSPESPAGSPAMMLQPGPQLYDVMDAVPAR

B1: anti-DR3 monoclonal antibody 142S38B Fab fragment (Fab, V domains shown)
VH: EVQLLESGGGLVQPGGSLRLSCAASGFTVSRYAMSWVRQAPGKGLEWVSAISDSGGRTYYADSVMGRFTISRDTSKNTLYLQMNSLRAEDTAVYFCAKEFGDYLDYWGQGTLVTVSS
VL: EIVLTQSPATLSLSPGERATLSCRASQSVSSYLAWYQQKPGQAPRLLIYDASNRATGIPARFSGSGSGTDFTLTISSLEPEDFAVYYCQQRSNWWTFGQGTKVEIK
notes: Fab made with the Pierce Fab Preparation Kit from antibody 142S38B; Human kappa light chain; Only the variable domains are written
B2: anti-DR3 monoclonal antibody 142S38B (hybridoma supernatant) (antibody, V domains shown)
VH: B1 VH
VL: B1 VL
notes: Human antibody from a KM mouse hybridoma, detected with anti-human IgG-PE; Kappa light chain
B3: anti-DR3 monoclonal antibody 142A2 Fab fragment (Fab, V domains shown)
VH: QVQLQQSGPGLVKPSQTLSLTCAISGDSVSGYSAAWNWIRQSPSRGLEWLGRTYYRSKWYNDYAVSVKSRITINPDTSKNQFSLQLNSVTPEDTAVYYCARDYYGSESYYNGGYYYYGMDVWGQGTTVTVSS
VL: AIQLTQSPSSLSASVGDRVTITCRASPGISSALAWYQQKPGKAPKLLMYDASSLESGVPSRFSGSGSGTDFTLTISSLQPEDFATYYCQQFNDYPLTFGGGTKVEIK
notes: Fab made with the Pierce Fab Preparation Kit from antibody 142A2; also called parental 142A2
B4: 142A2-A51E/L54Q Fab (Fab, V domains shown)
VH: B3 VH
VL: B3 VL with A51E, L54Q
notes: Only the variable domains are written; also called A2-EQ
B5: 142A2-G112R Fab (Fab, V domains shown)
VH: B3 VH with G112R
VL: B3 VL
notes: Only the variable domains are written
B6: 142A2-G112R/A51E Fab (Fab, V domains shown)
VH: B3 VH with G112R
VL: B3 VL with A51E
notes: Only the variable domains are written; also called A2-ER
B7: 142A2-A51E Fab (Fab, V domains shown)
VH: B3 VH
VL: B3 VL with A51E
notes: Only the variable domains are written; also called A2-E
B8: 142A2-G112R/A51E/L54Q Fab (Fab, V domains shown)
VH: B3 VH with G112R
VL: B3 VL with A51E, L54Q
notes: Only the variable domains are written; also called A2-EQR; 142A2-EQR
B9: 142A2-G112R/L54Q Fab (Fab, V domains shown)
VH: B3 VH with G112R
VL: B3 VL with L54Q
notes: as for B5
B10: 142A2-L54Q Fab (Fab, V domains shown)
VH: B3 VH
VL: B3 VL with L54Q
notes: Only the variable domains are written; also called A2-Q

Experiments:
[1] = biological target: T2, recombinant human DR3-human IgG1-Fc (soluble human DR3(EC)-hG1Fc) (human); assay: SPR, Fab on immobilised DR3-Fc, same as Example 5; n = 3
T2 construct: also called huDR3-huFc; hDR3(EC)-hG1Fc
Description: (§1) Fab antibody fragments of the above mentioned antibodies were obtained following the Pierce Fab Preparation Kit (Thermo Scientific Pierce No. 44985). All of the following manipulations were carried out using a Biacore® 3000 (manufactured by GE Healthcare Bio-Sciences). Recombinant huDR3-huFc protein was immobilized on a CM5 sensor chip (manufactured by GE Healthcare Bio-Sciences) by an amine coupling chemistry.
(§2) In particular, the kinetic assay was carried out by immobilizing on the chip approximately 2000 resonance unit (RU) of recombinant protein, in order to achieve a medium protein immobilization level. Thereafter, the anti-DR3 antibody Fab fragments, diluted from 12 nM concentration in five steps, were allowed to run at a flow rate of 30 μL/min onto the chip for 120 seconds. The dissociation time was 300 seconds and the binding curves were measured at 25° C.
(§3) Regeneration was performed with glycine-HCl, pH 1.5, 60 seconds. The raw data were double referenced by subtraction of the signals from a reference flow cell without captured ligand and a buffer blank. The sensorgram corresponding to each concentration was obtained. The analysis was carried out using a 1:1 Langmuir fit model, using the analysis software attached to the apparatus, Biacore® 3000 Evaluation software (manufactured by Biacore), thereby calculating an association rate constant ka [1/Ms] and a dissociation rate constant kd [1/s] for the recombinant huDR3-huFc protein.

[2] = biological target: T2, recombinant human DR3-human IgG1-Fc …; assay: SPR (Biacore 3000), huDR3-huFc on CM5, Fab as analyte; average KD, n = 2
Description: as §1, §2
(§4) Regeneration was performed with glycine-HCl, pH 1.5, 60 seconds. The raw data were double referenced by subtraction of the signals from a reference flow cell without captured ligand and a buffer blank. The sensorgram corresponding to each concentration was obtained. […]

[3] = biological target: T2, recombinant human DR3-human IgG1-Fc …; assay: SPR (Biacore 3000), huDR3-huFc amine-coupled on CM5, Fab 12 to 0.375 nM, 1:1 Langmuir fit, 25 C; run 2
Description: as §1, §2, §3

[4] = biological target: T2, recombinant human DR3-human IgG1-Fc …; assay: SPR (Biacore 3000), huDR3-huFc amine-coupled on CM5, Fab 12 to 0.375 nM, 1:1 Langmuir fit, 25 C; run 1
Description: as §1, §2, §3

[5] = biological target: T1, death domain-deleted human DR3 …; assay: flow cytometry of hybridoma supernatant on human DR3-expressing CHO cells, anti-human IgG-PE
Description: Supernatants of multiwell plates were screened by flow cytometric binding to human DR3-expressing CHO cells (hereinafter described as CHO/DR3, in case). Cells were incubated at 10,000/well in a 96-well round-bottom assay plate for 15 minutes at 4° C. with a neat supernatant of hybridoma. Cells were pelleted via centrifugation, and washed with 200 μL PBS/0.5% fetal calf serum. […] Cells were washed as described above, and resuspended in 200 μL PBS/0.5% fetal calf serum; >5000 events acquired on an LSR Fortessa flow cytometer (Beckton Dickinson). Results were analyzed using FlowJo (Treestar Inc.).

[6] = biological target: T2, recombinant human DR3-human IgG1-Fc …; assay: SPR, Fab on immobilised DR3-Fc, same as Example 5; n = 6
Description: as §1, §2, §3

[7] = biological target: T2, recombinant human DR3-human IgG1-Fc …; assay: SPR, Fab on immobilised DR3-Fc
Description: as §1, §2, §3
Target sequence in this assay (chain, as listed by the source limits assumed): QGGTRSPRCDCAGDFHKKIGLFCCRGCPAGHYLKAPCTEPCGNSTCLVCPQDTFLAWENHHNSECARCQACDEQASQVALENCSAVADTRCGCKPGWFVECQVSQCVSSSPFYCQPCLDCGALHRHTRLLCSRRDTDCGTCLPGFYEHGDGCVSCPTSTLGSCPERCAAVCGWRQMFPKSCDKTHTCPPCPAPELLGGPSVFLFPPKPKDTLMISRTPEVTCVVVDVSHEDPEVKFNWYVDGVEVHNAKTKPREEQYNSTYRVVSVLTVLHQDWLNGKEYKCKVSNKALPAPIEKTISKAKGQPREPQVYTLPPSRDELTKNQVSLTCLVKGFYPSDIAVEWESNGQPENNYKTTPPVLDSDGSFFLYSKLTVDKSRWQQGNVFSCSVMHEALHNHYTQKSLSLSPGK

[8] = biological target: T2, recombinant human DR3-human IgG1-Fc …; assay: SPR, Fab on immobilised DR3-Fc, same as Example 5; n = 23
Description: as §1, §2, §4

Binder | Kd [1] | Kd [6] | fold increase of binding affinity against parental 142A2 [7] | further results
B1 | 0.13 nM |  |  | Kd [2]: 0.194 nM; Kd [3]: 0.162 nM; koff [3]: 5.46e-05 s⁻¹; kon [3]: 337000 M⁻¹ s⁻¹; Kd [4]: 0.225 nM; koff [4]: 5.37e-05 s⁻¹; kon [4]: 239000 M⁻¹ s⁻¹
B2 |  |  |  | binding result [5]: binds
B3 |  | 3.99 nM |  | Kd [2]: 2.65 nM; Kd [3]: 1.5 nM; Kd [4]: 3.79 nM
B4 |  |  | ~1.9 fold | Kd [8]: 2.13 nM
B5 | 3.19 nM |  |  | 
B6 |  | 1.96 nM | ~2 fold | 
B7 |  | 2.2 nM | ~1.8 fold | 
B8 | 1.78 nM |  | ~2.2 fold | 
B9 | 2.37 nM |  |  | 
B10 | 3.04 nM |  | ~1.2 fold | 

From US20170190781A1 (Kyowa Kirin, published 2017)
